From patent US20250000944A1, “USE OF RECOMBINANT CALRETICULIN IN HAIR GROWTH, HAIR BREEDING, HAIR PROTECTION OR ANTI-HAIR LOSS AND RELATED PRODUCT” (BEIJING YITUBAIHUI BIOTECH CO., LTD, priority 2021, published 2025)
Entries after “also recorded” stand apart in the source; their conditions may differ.

Columns and labels:
[1] = tested on: androgenic alopecia model; test: First experiment: testosterone-induced androgenic alopecia model, hair observed by dermatoscope and scanning electron microscopy; type: in vivo, C57BL/6 male mice; conditions: 21 days, proteins 0.21 mg/ml injected on the back once a day, minoxidil 5% external, finasteride 13 μg/mL; for changes in hair observed by dermatoscope: compared with the model group (frizzy hair)
Protocol: Experimental animals: C57BL/6 male mice, 6-7 weeks old, weighing (20±2) g, were provided by Beijing Vital River Laboratory Animal Technology Co. Ltd., with the animal license number of SCXK (Beijing) 2021-0006. They were kept in a 12 h light/12 h dark environment, with free access to food and water. The mice were divided into normal NC group (NC), model group (Model), positive control-minoxidil group (Minoxidil), positive control-finasteride group (Finasteride), experimental group A and experimental group B. The proteins were stored in a −70° C. refrigerator and diluted with physiological saline when used. Experimental group A used rh-CRT-1, with a concentration of 0.21 mg/ml. Experimental group B used rh-CRT-2, with a concentration of 0.21 mg/ml. There were 6 mice in each group.
The main reagents used are as follows: 4% paraformaldehyde (Beijing Solarbio Technology Co., Ltd., China), isoflurane (Rayward, China), testosterone (Shanghai Standard Biotechnology Co., Ltd., China), paraffin sectioner (Thermo, USA), small animal anesthesia machine (Rayward, China), and inverted microscope (Olympus, Japan).
Modeling and drug administration: First, the androgenic alopecia model was established. One day before the modeling, the hair in the central part of the back of the experimental animal was removed with a skin preparation knife, and the prepared area was depilated with a depilatory cream. After 24 hours of depilation, the modeling agent (testosterone, 5.0 mg/mL) was subcutaneously injected into the neck of the mice in groups except the NC group, with a total dose of 0.2 mL/mouse. The mice in the NC group were injected with an equal amount of normal saline. After modeling, the mice were administrated with drugs. The NC group was injected with normal saline once a day, 0.15 mL/mouse each time. The experimental group A, experimental group B and positive control group were injected with modeling agent (testosterone), and administrated with drugs after 2 hours, and the dose of modeling agent was 0.2 mL/mouse. The experimental group A and experimental group B were injected on the back once a day, 0.15 mL/mouse each time. The positive control minoxidil group was applied 5% minoxidil externally, 0.01 mL/mouse, once a day. The positive control finasteride group was applied finasteride at a concentration of 13 μg/mL, 0.2 mL/mouse, once a day.

[2] = tested on: mice with androgenic alopecia; test: Second experiment: testosterone hair loss model, hair growth, skin blackness, scanning electron microscopy and hair follicle count; type: in vivo, C57BL/6 male mice; conditions: for hair growth on the back skin: 17th day, 0.15 mL/mouse once a day; for blackness of the back skin (color tester): Day 17; for blackness of the back skin (color tester) / number of hair follicles (pathological section): P<0.01
Protocol: Experimental animals: C57BL/6 male mice, 6-7 weeks old, weighing (20±2) g, were provided by Beijing Vital River Laboratory Animal Technology Co. Ltd., with the animal license number of SCXK (Beijing) 2021-0006. They were kept in a 12 h light/12 h dark environment, with free access to food and water. The mice were divided into normal control group (normal group, NC), model group (Model), experimental group C (rh-CRT-2, with a concentration of 0.35 mg/ml) including an injection group and an external application group, experimental group D (rh-CRT-3, with a concentration of 0.21 mg/ml) including an injection group and external application group, and positive control-minoxidil group (Minoxidil). The proteins were stored in a −70° C. refrigerator and diluted with physiological saline when used. There were 6 mice in each group.
Modeling and drug administration: First, the hair loss model was established. One day before the modeling, the hair in the center of the back of the experimental animal was removed with a skin preparation knife, and the prepared skin area was depilated with a depilatory cream. After 24 hours of depilation, the normal control group was given 75% ethanol, and other groups were injected with testosterone solution (5 mg/mL) prepared with 75% ethanol, 0.01 mL/mouse. Two hours later, the injection groups of experimental group C and experimental group D were injected on the back, 0.15 mL/mouse, once a day, for 17 consecutive days; the external application groups of experimental group C and experimental group D were applied on the back, 0.15 mL/mouse, once a day, for 17 consecutive days. The normal control group and the model group were externally applied with physiological saline, once a day, 0.15 mL/mouse, for 17 consecutive days. During the drug administration process, except for the normal control group, all other groups were injected with the modeling agent (testosterone), and administrated with drugs after 2 hours. […] After the experiment, the mouse skin was pathologically sectioned as follows: The skin pathological tissue was fixed in 4% paraformaldehyde, trimmed, dehydrated and transparent, and then embedded. The slices were cut with a thickness of 6 μm using a paraffin slicer, and further dewaxed, stained, dehydrated, transparent and sealed. The hair follicles in different areas were observed under an optical microscope, and the number of hair follicles was statistically analyzed.
Scanning electron microscopy observation: At the end of the experiment, hair shafts were randomly plucked from the newly formed hair area on the back of each group of mice. Three mice were selected from each group. The plucked hair shafts were fixed and the changes of hair shafts and hair cuticles were observed by scanning electron microscopy.
Statistical analysis: All data were processed using SPSS 17.0 software. One-way ANOVA was used for comparisons among multiple groups. Data were expressed as mean±standard deviation (x±s). P<0.05 was considered statistically significant, and P>0.05 was not considered statistically significant.

[3] = tested on: AGA (androgen alopecia) model mice; test: Fourth experiment: hair growth score in DHT-induced AGA model mice; type: in vivo, C57BL/6N male mice; conditions: Day 17; for hair growth score compared with the Model group: external application 100 μL, CRT 0.35 mg/ml, MNX 5 mg/ml
Protocol: The experimental animals were the same as in the third experiment.
The AGA model was established in the same manner as the third experiment, and the administration was carried out as follows: The AGA model was established by injecting dihydrotestosterone into the experimental mice. Dihydrotestosterone (DHT) solution was injected subcutaneously at multiple points every day, 100 μL/mouse (5 mg/kg body weight), and then the drug was administered after 3 h of absorption. CRT-3 and CRT-1 protein solutions were applied externally. 100 μL of protein solution was applied, and 100 μl of minoxidil MNX was applied. The solvent formula comprised 50% ethanol, 20% propylene glycol, and 30% pure water.
The scoring criteria and scoring process were the same as those in the third experiment.

[4] = tested on: AGA (androgenic alopecia) model mice; test: Third experiment: hair growth score in DHT-induced AGA model mice; type: in vivo, C57BL/6N male mice; conditions: Day 17
Protocol: C57BL/6N male mice, 6-7 weeks old, weighing (18-20) g, 50 mice, with the animal license number of SCXK (Beijing) 2021-0006, were kept in a 12 h light/12 h dark environment, with free access to food and water. Adaptive feeding was performed for about 1 week.
The hair in an area of about 2 cm×3 cm at the border of the spine was shaved using an electric shaver. The depilatory area was applied with 8% sodium sulfide solution. After 90±10 s, the depilatory area on the back was cleaned with cotton balls dipped in water, the residual sodium sulfide was washed away with a washing bottle, and then the mice were wiped dry. Because the hair follicle cycle of mice was in the resting phase at this time, the mouse skin was pink. Mice were randomly divided into groups using Excel software, 10 mice in each group, and the modeling was established after 24 h and the drug was administered for 17 consecutive days. The AGA model was established by injecting dihydrotestosterone into the experimental mice. Dihydrotestosterone (DHT) solution was injected subcutaneously at multiple points every day, 100 μL/mouse (5 mg/kg body weight), and then the drug was administered after 3 h of absorption. CRT-2 and CRT-1 protein solutions were applied externally. 100 μL of protein solution was applied, and 100 μl of minoxidil MNX was applied. The CRT and MNX combination group was first applied with CRT-2 protein solution and then MNX 2 hours later. The solvent formula comprised 50% ethanol, 20% propylene glycol, and 30% pure water.
Scoring was based on the coverage of hair growth: • 0 points: no hair growth, pink in the hair removal area; • 1 point: gray in the hair removal area, hair coverage area E<20%; • 2 points: black in the hair removal area, hair coverage area 20%<E<40%; • 3 points: black in the hair removal area with a little hair growth, hair coverage area 40%<E<60%; • 4 points: black in the hair removal area with some hair growth, hair coverage area 60%<E<80%; • 5 points: black in the hair removal area, hair coverage area 80%<E<100%.
The skin color changes of mice were observed before administration every day. The hair removal time of mice was designated as Day 0, the first day of administration was designated as Day 1, and so on. The hair growth of each mouse was recorded and analyzed on Day 7, Day 9, Day 11, Day 13, Day 15, and Day 17.

[5] = external application group, compared with the model group
[6] = injection group, compared with the model group

With CC(C)(C)NC(=O)[C@H]1CC[C@H]2[C@@H]3CC[C@H]4NC(=O)C=C[C@]4(C)[C@H]3CC[C@]12C [finasteride, reference compound] as the molecule, how does the “changes in hair observed by dermatoscope” value [1] read?
The value was “smooth hair”.

And the “hair cuticles observed by scanning electron microscopy” value [1]?
The value was “arranged neatly”.

B1: CRT-3: fragment (1-291 aa) of recombinantly expressed CRT, amino acid sequence SEQ ID NO: 12 (protein)
chain: EPAVYFKEQFLDGDGWTSRWIESKHKSDFGKFVLSSGKFYGDEEKDKGLQTSQDARFYALSASFEPFSNKGQTLVVQFTVKHEQNIDCGGGYVKLFPNSLDQTDMHGDSEYNIMFGPDICGPGTKKVHVIFNYKGKNVLINKDIRCKDDEFTHLYTLIVRPDNTYEVKIDNSQVESGSLEDDWDFLPPKKIKDPDASKPEDWDERAKIDDPTDSKPEDWDKPEHIPDPDAKKPEDWDEEMDGEWEPPVIQNPEYKGEWKPRQIDNPDYKGTWIHPEIDNPEYSPDPSIYAY
What does the source list for B1?
hair growth on the back skin ([2]; external application group): promoted hair growth; hair growth on the back skin ([2]; injection group): promoted hair growth; blackness of the back skin (color tester) [2, 5]: significantly increased; blackness of the back skin (color tester) [2, 6]: significantly increased; hair cuticles under scanning electron microscopy [2, 5]: dense; hair shafts under scanning electron microscopy [2, 5]: became thicker; number of hair follicles (pathological section) [2, 5]: significantly promoted; hair cuticles under scanning electron microscopy ([2]; injection group): dense; hair shafts under scanning electron microscopy ([2]; injection group): thin; number of hair follicles (pathological section) [2, 6]: significantly promoted; hair growth score compared with the Model group ([3]; P<0.05): significantly higher; also recorded: significantly increased; hair growth score compared with the CRT-1 group ([3]; external application, P<0.05): better than; also recorded: significantly increased

B2: CRT-1: recombinantly expressed full-length CRT (1-400 aa), amino acid sequence SEQ ID NO: 1, expressed in Pichia pastoris (protein)
chain: EPAVYFKEQFLDGDGWTSRWIESKHKSDFGKFVLSSGKFYGDEEKDKGLQTSQDARFYALSASFEPFSNKGQTLVVQFTVKHEQNIDCGGGYVKLFPNSLDQTDMHGDSEYNIMFGPDICGPGTKKVHVIFNYKGKNVLINKDIRCKDDEFTHLYTLIVRPDNTYEVKIDNSQVESGSLEDDWDFLPPKKIKDPDASKPEDWDERAKIDDPTDSKPEDWDKPEHIPDPDAKKPEDWDEEMDGEWEPPVIQNPEYKGEWKPRQIDNPDYKGTWIHPEIDNPEYSPDPSIYAYDNFGVLGLDLWQVKSGTIFDNFLITNDEAYAEEFGNETWGVTKAAEKQMKDKQDEEQRLKEEEEDKKRKEEEEAEDKEDDEDKDEDEEDEEDKEEDEEEDVPGQAKDEL
What does the source list for B2?
hair growth score compared with the Model group ([3]; P<0.05): significantly higher; hair growth score compared with MNX ([3]; external application, P>0.05): no significant difference; hair growth score compared with the Model group ([4]; external application 100 μL, CRT 0.35 mg/ml, MNX 5 mg/ml, P<0.05): significantly higher; hair growth score compared with MNX ([4]; external application, P>0.05): no significant difference; changes in hair observed by dermatoscope [1]: smoother; hair cuticles observed by scanning electron microscopy [1]: arranged neatly
